The RNAGym collection of RNA variant scans (doi:10.7554/elife.80360)

B1: Twister Ribozyme (parent)
chain: AACACUGCCAAUGCCGGUCCCAAGCCCGGAUAAAAGUGGAGGGGGCGG

Variants of: B1
Test: self-cleavage, relative activity (ratio to wild type); higher = more cleavage; co-transcriptional

Variant | self-cleavage
G44C G45A | 0.762
G44U G47U | 0.783
G45U C46A | 0.595
G44A G48A | 0.927
G44C C46G | 0.254
G44C C46A | 0.28
C46U G47A | 0.874
C46U G47C | 1.6
G45U G47C | 0.435
G45U G47U | 0.386
G45C | 0.645
G45A | 0.939
G45U | 0.902
G43U G48A | 0.175
G43U G48U | 0.198
G43U G48C | 0.205
G45C G47A | 0.305
G44U C46G | 0.728
G44U C46A | 0.476
G44U C46U | 1.02
G45A G47U | 0.701
G45A G47C | 0.539
G44C G47U | 0.244
G47U G48A | 0.819
G47U G48U | 1.57

Variant | self-cleavage
G44C G48C | 0.225
G44C G48U | 0.225
G43U G44C | 0.767
G43U G44U | 0.398
G48C | 1.15
G48U | 1.06
G48A | 0.986
C46G G47U | 0.728
C46G G47A | 0.818
G44U G48C | 0.427
G44U G48U | 0.545
G44C | 0.971
G44A | 0.959
G44U | 0.974
C46A G48U | 0.889
C46A G48A | 0.837
G45A C46G | 0.856
G45A C46U | 0.848
G45A C46A | 0.714
G45C C46G | 1.61
G45C C46A | 0.564
G47A G48C | 0.942
G47A G48A | 1.31
G44A G45C | 0.535
G44A G45A | 0.906

Variant | self-cleavage
G47C G48A | 0.666
G43U G45U | 0.358
G43U G45A | 0.614
C46U G48A | 0.885
C46U G48U | 1.01
G44U G45U | 0.922
G44U G45A | 0.825
G45A G48A | 0.785
G45A G48U | 0.917
G47C | 0.706
G47A | 0.952
G47U | 0.965
G45U G48U | 0.757
G45U G48A | 0.757
G45U G48C | 1.48
C46G | 0.951
C46A | 0.927
C46U | 0.958
G44A G47C | 0.828
G44A G47U | 0.922
G43U G47U | 0.137
G43U G47C | 0.177
G43U G47A | 0.201
